According to PMC4851294 (PLoS ONE, 2016):

Tested on: O=C[C@H](O)[C@H](O)COP(=O)(O)O
Test: purified protein

3-deoxy-D-arabino-heptulosonate 7-phosphate synthase (MtuDAH7PS) (Mycobacterium tuberculosis H37Rv)
Km: 28 ± 2 µM
kcat: 4.7 ± 0.1 s⁻¹
kcat/Km: 170000 ± 20000 M⁻¹ s⁻¹
